Test results published in article PMC9204165, “Delineating the Role of the msaABCR Operon in Staphylococcal Overflow Metabolism”.

T1: MsaB-His (MsaBhis) (Staphylococcus aureus USA300 LAC) (UniProt Q2FH36)
T1 sequence: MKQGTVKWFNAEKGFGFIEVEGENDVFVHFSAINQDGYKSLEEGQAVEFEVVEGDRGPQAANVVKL

T2: MsaB-His (MsaBhis) (Staphylococcus aureus USA300 LAC, UniProt Q2FH36 1-66)
T2 sequence: T1 sequence

B1: PcidABC-EMSA (dsDNA)
DNA 1: AGTGAAATTTAGAGAGCGTTTCCATAGAAAATAGTAATACAAACCATAAAAAAAGAGTAT
DNA 2: ATACTCTTTTTTTATGGTTTGTATTACTATTTTCTATGGAAACGCTCTCTAAATTTCACT
B2: PalsSD-EMSA (dsDNA)
DNA 1: B1 DNA 2
DNA 2: B1 DNA 1

Experiments:
[1] = target: T1, MsaB-His (MsaBhis) (Staphylococcus aureus USA300 LAC); test: competition
[2] = target: T1, MsaB-His (MsaBhis) (Staphylococcus aureus USA300 LAC); test: EMSA
MsaB-His (MsaBhis) = target: T2, MsaB-His (MsaBhis); test: EMSA; 5 mM MgCl2, poly(dI-dC); conditions: protein: recombinant; tags: C-terminal 6xHis; label: 5'-biotin

Molecule	binding result (MsaB-His (MsaBhis))	also measured
TCCACTAACATCATCCTAACTATTTCAACACGTTTATTTCATTATACACAACTTCTTAAACATTCAATAAATTTAGATTTATAAAATTGCTTTATAAAAAGTTTTATGTAAAATACACATTCTTTTATGGTATTATATTAATGGCTCAAGT (double strand) [PcidR promoter unlabeled competitor]		binding [1]: binds
TCCACTAACATCATCCTAACTATTTCAACACGTTTATTTCATTATACACAACTTCTTAAACATTCAATAAATTTAGATTTATAAAATTGCTTTATAAAAAGTTTTATGTAAAATACACATTCTTTTATGGTATTATATTAATGGCTCAAGT (double strand) [PcidR promoter probe]		binding [2]: binds
B1	no binding	
B2	no binding	
